Data taken from US20180371451A1 (BOARD OF TRUSTEES OF THE UNIVERSITY OF ILLINOIS, published 2018).

T1: CDC34 (UniProt P49427 1-236, limits assumed)
T1 sequence (looked up): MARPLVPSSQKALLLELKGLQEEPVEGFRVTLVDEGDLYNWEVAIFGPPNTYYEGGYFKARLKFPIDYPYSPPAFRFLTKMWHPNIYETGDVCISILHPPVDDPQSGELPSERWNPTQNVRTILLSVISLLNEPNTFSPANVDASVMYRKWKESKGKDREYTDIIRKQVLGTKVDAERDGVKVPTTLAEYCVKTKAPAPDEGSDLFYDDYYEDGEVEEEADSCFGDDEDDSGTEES


What was measured:
Assay in all cases: specificity test of the expressed monobodies (method not named)
[1] = target: human Cyclin-Dependent Kinase 2 (human, UniProt P24941 1-298)
BSA = BSA (UniProt P02769 25-607)
CDC34 = target: T1, CDC34

BSA, sequence (P02769 25-607 limits assumed): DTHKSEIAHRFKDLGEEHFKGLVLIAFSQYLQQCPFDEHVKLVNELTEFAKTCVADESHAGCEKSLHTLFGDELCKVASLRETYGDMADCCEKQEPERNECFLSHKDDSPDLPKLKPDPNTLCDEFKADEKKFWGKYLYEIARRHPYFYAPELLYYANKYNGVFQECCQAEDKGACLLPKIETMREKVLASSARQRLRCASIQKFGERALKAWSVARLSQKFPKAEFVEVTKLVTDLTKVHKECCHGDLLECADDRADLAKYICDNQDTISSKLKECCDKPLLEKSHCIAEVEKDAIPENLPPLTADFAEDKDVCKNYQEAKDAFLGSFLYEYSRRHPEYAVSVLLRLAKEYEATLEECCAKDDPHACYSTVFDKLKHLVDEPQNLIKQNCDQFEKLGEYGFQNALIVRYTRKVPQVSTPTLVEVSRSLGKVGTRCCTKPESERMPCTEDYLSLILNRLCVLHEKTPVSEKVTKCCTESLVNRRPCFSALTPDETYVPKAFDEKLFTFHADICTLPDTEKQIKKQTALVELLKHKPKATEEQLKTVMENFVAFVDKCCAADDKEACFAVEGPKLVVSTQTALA

| binding result [1] | binding result (BSA) | binding result (CDC34) | Binder |
| --- | --- | --- | --- |
| no binding | no binding | no binding | anti-MAP2K5 FN3 monobody clone H1 (designed binder, FN3 monobody from the PExSR selection; For the specificity test it was expressed as a SUMO fusion from pET14b-SUMO; also called Anti-MAP2K5 H1) MAVSDVPRKLEVVAATPTSLLISWDPYWFSGLYYRITYGETGGNSPVQEFTVPGSKSTATISGLKPGVDYTITVYAVTYYSWGYLVGEIISINYRI |
| no binding | no binding | no binding | anti-MAP2K5 FN3 monobody clone G4 (designed binder, FN3 (tenth type III domain of fibronectin) monobody from the PExSR selection; It was cloned into the pET14b-SUMO E. coli expression vector (SUMO fusion, purified on His60 resin) for characterisation; also called anti-MAP2K5 clone G4) MAVSDVPRKLEVVAATPTSLLISWDQDQVYYYRIRYGETGGNSPVQEFTVPGSKSTATISGLKPGVDYTITVYAVTGTSYAYIISINYRI |
